To fix the notation:
B1: OR4K15 (parent)
chain: GUUAACGGUCAUAGGCCAUGGAAACUAGGAGCACCAUUUCGCUGCCAGUGAAGAAAUGAACAAAGAAAAUCUGGGCCAGGCAGGCAUCAAAAGAAAUAGUCUUGCGCUCAACCAGAAAGUCUGUAAUCAUUUUAAGGGUA

Variants of B1 are the subject of the series. Briefly: self-cleavage, relative activity (ratio to wild type); higher = more cleavage; in vitro, sequencing; the parent is a self-cleaving ribozyme.
For A36U A78G, the self-cleavage is 0.21.

Consider U37G A52G, for which the self-cleavage amounted to 1.48.

U37C A111U: the self-cleavage is 0.15.

Consider U37C A111G, for which the self-cleavage was found to be 0.03.

Take U37A C61U: the self-cleavage stood at 0.86.

On to U38A A98G, for which the self-cleavage came out at 0.91.

In the case of U38A A140U, the self-cleavage was determined as 1.08.

With U37C A118G, the self-cleavage came out at 1.36.

As for U37C U100C, the self-cleavage was found to be 1.67.

Regarding U37C U100A, the self-cleavage stood at 0.52.

For the variant A36U A89G, the self-cleavage came out at 1.41.

Consider U37C A91G, for which the self-cleavage was determined as 1.36.

For U37C A91U, the self-cleavage is 2.

In the case of A36U A96G, the self-cleavage was 1.74.

For the variant U37C U108C, the self-cleavage is 0.01.

In the case of U37C U108A, the self-cleavage is 0.04.

With U38A A114G, the self-cleavage came to 0.96.

In the case of U37C G93U, the self-cleavage was found to be 1.07.

Regarding A36U A90G, the self-cleavage came to 1.74.

Turning to U37C A78G, the self-cleavage was 0.26.

U37C A78U: the self-cleavage was found to be 0.32.

For the variant U37C A78C, the self-cleavage is 0.64.

A36U A82U: the self-cleavage is 0.31.

As for U37C G80A, the self-cleavage came to 0.21.

As for U38A A66G, the self-cleavage amounted to 1.31.

As for A36U G123A, the self-cleavage came out at 1.73.

For U38A A52U, the self-cleavage is 1.64.

For U37A A135U, the self-cleavage was determined as 2.22.

For the variant U37A A64G, the self-cleavage came out at 1.44.

On to U37C U70C, for which the self-cleavage was determined as 0.2.

As for U37C U57A, the self-cleavage stood at 0.99.

As to U37C U57G, the self-cleavage turned out to be 0.5.

Consider U37A U108C, for which the self-cleavage stood at 0.

For the variant U37C U87A, the self-cleavage was 1.49.

Regarding U37G A91G, the self-cleavage came to 1.82.

Turning to A36U A86G, the self-cleavage came out at 1.03.

Consider A36U U49C, for which the self-cleavage was 2.04.

A36U U100C: the self-cleavage worked out at 2.44.

With U37C A69G, the self-cleavage was 1.17.

On to U37C U122A, for which the self-cleavage was determined as 1.4.

In the case of U37A A51U, the self-cleavage is 1.05.

Take U37C A114U: the self-cleavage turned out to be 0.15.

As for U38A A67G, the self-cleavage is 0.89.

Turning to U37C A59C, the self-cleavage is 1.08.

With U37C A59U, the self-cleavage is 1.91.

Consider A36U C113U, for which the self-cleavage was 0.02.

For the variant A36U A98U, the self-cleavage was 2.42.

Regarding U37C U39A, the self-cleavage is 1.55.

For the variant U37C C76U, the self-cleavage is 0.06.

As to U38A A78G, the self-cleavage came out at 0.26.

Consider U38A A78U, for which the self-cleavage was 0.39.

U38A U43C: the self-cleavage is 1.3.

As to U38A U43A, the self-cleavage stood at 1.61.

Turning to U37C U43G, the self-cleavage was 1.46.

Regarding U37C U43C, the self-cleavage came to 2.16.

Regarding U37G A89G, the self-cleavage was 1.75.

In the case of U37C C107U, the self-cleavage is 0.02.

With A36U U139A, the self-cleavage was determined as 2.31.

Consider U37G A60G, for which the self-cleavage is 1.48.

For A36U U97A, the self-cleavage stood at 2.69.

With A36U U97C, the self-cleavage stood at 0.37.

As for U37C A66G, the self-cleavage came out at 1.73.

With U37C A66C, the self-cleavage worked out at 1.34.

With U38A A90U, the self-cleavage was found to be 2.21.

As to U38A A117G, the self-cleavage was determined as 2.22.

Consider U38A A117U, for which the self-cleavage was determined as 0.73.

For U37C A125G, the self-cleavage was 0.68.

U37C: the self-cleavage worked out at 1.27.

U37G: the self-cleavage was found to be 1.62.

On to U37A, for which the self-cleavage was 1.27.

With A36U U87C, the self-cleavage is 1.76.

With U37G A111G, the self-cleavage turned out to be 0.03.

Take U37A A96U: the self-cleavage amounted to 1.83.

As for U37A A96G, the self-cleavage came to 2.31.

In the case of U37A A90G, the self-cleavage stood at 0.73.

In the case of A36U U132C, the self-cleavage is 1.2.

Regarding U37A A62G, the self-cleavage was 1.37.

Take U37G A62G: the self-cleavage worked out at 1.44.

On to U37G U130C, for which the self-cleavage amounted to 0.05.

As for A36U C128A, the self-cleavage stood at 1.18.

Turning to U37C A82G, the self-cleavage is 0.69.

For U37C G41U, the self-cleavage is 1.04.

Turning to U37C A129G, the self-cleavage was 0.32.

For U37G U131C, the self-cleavage amounted to 1.37.

Regarding U37C G137A, the self-cleavage amounted to 1.64.

Take U37C G74A: the self-cleavage came out at 0.31.

Take U37C U72C: the self-cleavage stood at 0.26.

As to U37C U72A, the self-cleavage was determined as 0.51.

Consider U37A A52G, for which the self-cleavage was found to be 2.37.

With U38A A55G, the self-cleavage was 1.

For U38A G83U, the self-cleavage worked out at 0.84.

As to U37C A140G, the self-cleavage worked out at 1.24.

For the variant U37C U102A, the self-cleavage turned out to be 1.05.

On to U37C A47U, for which the self-cleavage came to 0.63.

Turning to U37A U72C, the self-cleavage turned out to be 0.37.

As for U37C A94U, the self-cleavage is 1.67.

With U37C A68U, the self-cleavage worked out at 1.5.

On to A36U U127C, for which the self-cleavage came out at 0.93.

For U38A A91G, the self-cleavage came out at 1.4.

As to A36U U72A, the self-cleavage stood at 0.37.

As to A36U U72C, the self-cleavage is 0.32.

For A36U U39C, the self-cleavage came to 1.03.

On to U37A A68G, for which the self-cleavage is 0.51.

U38A A64G: the self-cleavage is 1.37.

In the case of U38A A62G, the self-cleavage amounted to 1.19.

Regarding U38A A89U, the self-cleavage turned out to be 2.11.

Regarding U37G U132C, the self-cleavage was 0.78.

In the case of U37C C101U, the self-cleavage is 0.78.

As for U37C C101A, the self-cleavage amounted to 0.22.

Take U37C C46U: the self-cleavage was 1.33.

In the case of U37C C105U, the self-cleavage was 0.15.

Turning to U37C A62G, the self-cleavage came to 1.57.

A36U U43A: the self-cleavage amounted to 1.85.

For U37C U133C, the self-cleavage was determined as 1.16.

As to U37C U133A, the self-cleavage came out at 1.34.

Regarding U37C A96U, the self-cleavage stood at 1.84.

For U37C A96G, the self-cleavage was 1.36.

As to A36U A91C, the self-cleavage amounted to 1.76.

For the variant A36U A91G, the self-cleavage turned out to be 1.42.

In the case of U37C A51U, the self-cleavage was 1.83.

Take U37C A51G: the self-cleavage came out at 1.49.

On to U37G A59G, for which the self-cleavage worked out at 0.71.

With A36U A111G, the self-cleavage is 0.02.

Consider U37C A135G, for which the self-cleavage was 0.95.

Regarding U37C A55G, the self-cleavage turned out to be 1.59.

As to A36U U124C, the self-cleavage was 1.26.

U37C A86G: the self-cleavage was determined as 1.47.

Regarding U37C U103G, the self-cleavage was 0.02.

In the case of U37C U103C, the self-cleavage came out at 0.32.

U37C U103A: the self-cleavage worked out at 0.5.

As for U37C A63G, the self-cleavage was determined as 0.79.

On to U38A A47G, for which the self-cleavage was found to be 1.59.

As for U38A A47U, the self-cleavage was 1.31.

On to A36U U70G, for which the self-cleavage worked out at 1.53.

For the variant U38A A92G, the self-cleavage was found to be 1.34.

In the case of A36U G106A, the self-cleavage came to 0.02.

For the variant U37G U100C, the self-cleavage worked out at 1.67.

For U37C A52U, the self-cleavage is 0.57.

Turning to U37C A52G, the self-cleavage is 1.4.

For the variant A36U U38C, the self-cleavage turned out to be 1.51.

As to A36U G83A, the self-cleavage is 1.13.

In the case of U37G A55G, the self-cleavage is 1.07.

Turning to U37C A95U, the self-cleavage came out at 1.73.

Take U37C U124A: the self-cleavage was found to be 0.21.

Take U37C U124C: the self-cleavage was found to be 0.62.

Consider A36U A126U, for which the self-cleavage is 1.63.

In the case of A36U A126G, the self-cleavage is 0.99.

With U37C G136U, the self-cleavage was found to be 1.97.

U37C A60G: the self-cleavage turned out to be 0.54.

As for U37C A64G, the self-cleavage was found to be 1.54.

In the case of U37G A47G, the self-cleavage worked out at 1.16.

Consider A36U A135C, for which the self-cleavage was determined as 1.65.

U37C A92U: the self-cleavage amounted to 1.61.

With U38A A56G, the self-cleavage is 0.94.

For A36U U120A, the self-cleavage was determined as 2.08.

For U37C A54G, the self-cleavage was found to be 1.51.

For U37C A110C, the self-cleavage was 0.1.

A36U A94G: the self-cleavage amounted to 1.44.

With A36U C107G, the self-cleavage is 0.03.

In the case of A36U G48A, the self-cleavage was 1.22.

With U37C C61A, the self-cleavage was 0.78.

As for A36U U57C, the self-cleavage is 1.58.

Turning to U37G A68G, the self-cleavage was determined as 1.5.

Regarding A36U A116G, the self-cleavage was found to be 0.96.

In the case of A36U A116U, the self-cleavage was determined as 0.5.

Take U37A U38G: the self-cleavage came to 2.08.

With U37G G138A, the self-cleavage is 1.23.

These data come from the RNAGym collection of RNA variant scans (doi:10.7554/elife.90254).
